In article PMC11441981:
Blank lines part the entries; values can stand above or below the molecule they belong to.

Key:
Test in all cases: GST pull-down from S2 cell lysate with mass spectrometry (volcano plot of spectral intensities)
[1] = target: Ostδ; settings: three biological replicates, read off a plot
[2] = target: Arf79F; settings: three biological replicates, read off a plot
[3] = target: CG33303; settings: three biological replicates, read off a plot
[4] = target: Ostγ; settings: three biological replicates, read off a plot
[5] = target: γCOP; settings: three biological replicates, read off a plot
[6] = target: εCOP; settings: three biological replicates, read off a plot
[7] = target: T1, Prat, Q27601; settings: chain shown with the change, three biological replicates, read off a plot
T1 chain: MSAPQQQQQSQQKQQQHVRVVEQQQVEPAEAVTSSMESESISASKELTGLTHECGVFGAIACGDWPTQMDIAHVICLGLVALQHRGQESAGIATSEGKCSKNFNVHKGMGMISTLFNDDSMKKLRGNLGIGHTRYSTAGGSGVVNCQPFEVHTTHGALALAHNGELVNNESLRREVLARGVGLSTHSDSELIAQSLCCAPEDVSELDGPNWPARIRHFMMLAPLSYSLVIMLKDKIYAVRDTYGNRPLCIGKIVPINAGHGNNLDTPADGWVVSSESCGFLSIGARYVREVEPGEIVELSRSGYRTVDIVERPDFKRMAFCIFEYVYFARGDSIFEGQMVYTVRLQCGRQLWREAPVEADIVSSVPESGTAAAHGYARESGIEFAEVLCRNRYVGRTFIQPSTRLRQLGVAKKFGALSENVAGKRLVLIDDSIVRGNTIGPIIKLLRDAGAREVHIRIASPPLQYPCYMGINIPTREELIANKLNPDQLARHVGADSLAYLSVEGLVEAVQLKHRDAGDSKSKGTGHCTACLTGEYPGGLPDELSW

- other: Difference Log2(CG9590-GST, Wild-type vs W24,27A mutant) [1]: 1.7 log2
- other: Difference Log2(CG9590-GST, Wild-type vs W24,27A mutant) [2]: 1.4 log2
- other: Difference Log2(CG9590-GST, Wild-type vs W24,27A mutant) [3]: 2.5 log2
- other: Difference Log2(CG9590-GST, Wild-type vs W24,27A mutant) [4]: 1.1 log2
- other: Difference Log2(CG9590-GST, Wild-type vs W24,27A mutant) [5]: 6.3 log2
- other: Difference Log2(CG9590-GST, Wild-type vs W24,27A mutant) [6]: 5.5 log2
Molecule: GST-tagged CG9590 (Drosophila FAM114A) (from UniProt Q9VF39) W24A; W27A

- other: Difference Log2(CG9590-GST, Wild-type vs W24,27A mutant) [7]: 9.8 log2
B1: GST-tagged CG9590 (Drosophila FAM114A), Q9VF39 W24A; W27A (protein)
chain: MAKNPKKEEDGGNDWAQSDEDDNADDAGDDDDKFVHVEKEQQPQEKVSSRNDAKGTAENQEKLETPRISAPATASATSSSWGLWGGKLSSVLTTATEGLGTITTQVNQGLNQIIGVPDPEELARINVAEKAEKAAKAPPEENVDDEKESSAAFGLDFVTNLGSKVLNTGLDTLEGIGKKTMTILQDNDPKLMNKRKLLGLEANSPNLSAVLLEAKKEADQMEQSLQQLQLKRQKAQLRFEILFENYCGLVHFEALEILSKESRLKLDTLLDAVSGNARAELQETINEVKELIELEDLDVESEGDYEAEELSERLAATIKDAELGIQFDDIANHWTQSLSWLTSEEATAADLEQAYAKSIHALSEACALEMCKLHKIAELLLVKPHHSTANEVDGVVNLCQQFNGHLQGLSHRFAAVLSGKSETEESKGRVSTFFSEMLSAVQFIEKAYKLFTPILQMGAV
